Laboratory results from publication PMC9426509.
pKd: −log10 of the molar value.

Molecular target: Echovirus 18 (E18) mature (full) virus particle, strain HeB15-254 (echovirus 18 (strain HeB15-254))
Assay: SPR; Biacore 3000, 25 C; biotinylated full E18 particles in PBS with Tween immobilised on streptavidin (SA) chips; FcRn or CD55 flowed at 31.25 nM to 2,000 nM; pH 7.4; 1:1 binding model

“soluble ectodomain of human neonatal Fc receptor (FcRn): FCGRT (A16-L282) with B2M (from UniProt P61769 21-119) (complex)” gave a pKd of 6.46.
